B1: EEHEE_rd3_0130 (parent)
chain: TKIIVNGKTFTAPTEEEAQKIAEKLAKKAGLTVHKKNGTFELK

In the series the parent is B1. The experiment in a line: folding stability dG (cDNA display proteolysis); higher = more stable. The following applies: PBS, room temperature.
Turning to HKIIVNGKTFTAPTEEEAQKIAEKLAKKAGLTVHKKNGTFELK [T1H], the “folding stability dG” value was 1.05 kcal/mol.
Under MKIIVNGKTFTAPTEEEAQKIAEKLAKKAGLTVHKKNGTFELK [T1M] stands 0.565 kcal/mol; under GKIIVNGKTFTAPTEEEAQKIAEKLAKKAGLTVHKKNGTFELK [T1G], 0.627 kcal/mol; under QKIIVNGKTFTAPTEEEAQKIAEKLAKKAGLTVHKKNGTFELK [T1Q], 0.151 kcal/mol.
Under LKIIVNGKTFTAPTEEEAQKIAEKLAKKAGLTVHKKNGTFELK [T1L] stands 0.508 kcal/mol; under KKIIVNGKTFTAPTEEEAQKIAEKLAKKAGLTVHKKNGTFELK [T1K], 0.145 kcal/mol.
For YKIIVNGKTFTAPTEEEAQKIAEKLAKKAGLTVHKKNGTFELK [T1Y] the value was 2.19 kcal/mol; for NKIIVNGKTFTAPTEEEAQKIAEKLAKKAGLTVHKKNGTFELK [T1N], 0.378 kcal/mol.
Consider IKIIVNGKTFTAPTEEEAQKIAEKLAKKAGLTVHKKNGTFELK [T1I], for which the “folding stability dG” value was found to be 1.37 kcal/mol.
Under SKIIVNGKTFTAPTEEEAQKIAEKLAKKAGLTVHKKNGTFELK [T1S] stands 0.636 kcal/mol.
With VKIIVNGKTFTAPTEEEAQKIAEKLAKKAGLTVHKKNGTFELK [T1V], the “folding stability dG” value is 1.28 kcal/mol.
Under RKIIVNGKTFTAPTEEEAQKIAEKLAKKAGLTVHKKNGTFELK [T1R] stands 0.322 kcal/mol; under WKIIVNGKTFTAPTEEEAQKIAEKLAKKAGLTVHKKNGTFELK [T1W], 2.99 kcal/mol.
With FKIIVNGKTFTAPTEEEAQKIAEKLAKKAGLTVHKKNGTFELK [T1F], the “folding stability dG” value came out at 2.15 kcal/mol.
In the case of PKIIVNGKTFTAPTEEEAQKIAEKLAKKAGLTVHKKNGTFELK [T1P], the “folding stability dG” value amounted to 0.553 kcal/mol.
For TKIHVNGKTFTAPTEEEAQKIAEKLAKKAGLTVHKKNGTFELK [I4H] the value was 0.173 kcal/mol.
Under TKIGVNGKTFTAPTEEEAQKIAEKLAKKAGLTVHKKNGTFELK [I4G] stands -0.461 kcal/mol; under TKIFVNGKTFTAPTEEEAQKIAEKLAKKAGLTVHKKNGTFELK [I4F], 0.575 kcal/mol.
As to TKINVNGKTFTAPTEEEAQKIAEKLAKKAGLTVHKKNGTFELK [I4N], the “folding stability dG” value was -0.074 kcal/mol.
Under TKIPVNGKTFTAPTEEEAQKIAEKLAKKAGLTVHKKNGTFELK [I4P] stands -0.499 kcal/mol; under TKIQVNGKTFTAPTEEEAQKIAEKLAKKAGLTVHKKNGTFELK [I4Q], 0.068 kcal/mol.
For TKIMVNGKTFTAPTEEEAQKIAEKLAKKAGLTVHKKNGTFELK [I4M] the value was 0.561 kcal/mol; for TKIKVNGKTFTAPTEEEAQKIAEKLAKKAGLTVHKKNGTFELK [I4K], 0.465 kcal/mol.
Consider TKIEVNGKTFTAPTEEEAQKIAEKLAKKAGLTVHKKNGTFELK [I4E], for which the “folding stability dG” value is -0.066 kcal/mol.
For TKIDVNGKTFTAPTEEEAQKIAEKLAKKAGLTVHKKNGTFELK [I4D] the value was -0.441 kcal/mol.
Under TKILVNGKTFTAPTEEEAQKIAEKLAKKAGLTVHKKNGTFELK [I4L] stands 0.583 kcal/mol; under TKIAVNGKTFTAPTEEEAQKIAEKLAKKAGLTVHKKNGTFELK [I4A], -0.213 kcal/mol; under TKWIVNGKTFTAPTEEEAQKIAEKLAKKAGLTVHKKNGTFELK [I3W], -0.228 kcal/mol.
Turning to TKPIVNGKTFTAPTEEEAQKIAEKLAKKAGLTVHKKNGTFELK [I3P], the “folding stability dG” value was -0.552 kcal/mol.
For TKHIVNGKTFTAPTEEEAQKIAEKLAKKAGLTVHKKNGTFELK [I3H] the value was -0.416 kcal/mol.
For the variant TKYIVNGKTFTAPTEEEAQKIAEKLAKKAGLTVHKKNGTFELK [I3Y], the “folding stability dG” value is 0.08 kcal/mol.
As for TKRIVNGKTFTAPTEEEAQKIAEKLAKKAGLTVHKKNGTFELK [I3R], the “folding stability dG” value is -0.394 kcal/mol.
For TKFIVNGKTFTAPTEEEAQKIAEKLAKKAGLTVHKKNGTFELK [I3F] the value was 0.035 kcal/mol; for I3D, -0.633 kcal/mol.
For TKSIVNGKTFTAPTEEEAQKIAEKLAKKAGLTVHKKNGTFELK [I3S] the value was -0.742 kcal/mol; for TKVIVNGKTFTAPTEEEAQKIAEKLAKKAGLTVHKKNGTFELK [I3V], 0.523 kcal/mol.
Turning to TKMIVNGKTFTAPTEEEAQKIAEKLAKKAGLTVHKKNGTFELK [I3M], the “folding stability dG” value is -0.368 kcal/mol.
For TKEIVNGKTFTAPTEEEAQKIAEKLAKKAGLTVHKKNGTFELK [I3E] the value was -0.908 kcal/mol; for TKLIVNGKTFTAPTEEEAQKIAEKLAKKAGLTVHKKNGTFELK [I3L], -0.098 kcal/mol.
Under TKTIVNGKTFTAPTEEEAQKIAEKLAKKAGLTVHKKNGTFELK [I3T] stands -0.896 kcal/mol; under TKQIVNGKTFTAPTEEEAQKIAEKLAKKAGLTVHKKNGTFELK [I3Q], -0.664 kcal/mol.
Take TQIIVNGKTFTAPTEEEAQKIAEKLAKKAGLTVHKKNGTFELK [K2Q]: the “folding stability dG” value is 0.574 kcal/mol.
For TPIIVNGKTFTAPTEEEAQKIAEKLAKKAGLTVHKKNGTFELK [K2P] the value was 0.169 kcal/mol.
THIIVNGKTFTAPTEEEAQKIAEKLAKKAGLTVHKKNGTFELK [K2H]: the “folding stability dG” value stood at 0.273 kcal/mol.
Under TFIIVNGKTFTAPTEEEAQKIAEKLAKKAGLTVHKKNGTFELK [K2F] stands 0.565 kcal/mol; under TTIIVNGKTFTAPTEEEAQKIAEKLAKKAGLTVHKKNGTFELK [K2T], 0.448 kcal/mol; under TMIIVNGKTFTAPTEEEAQKIAEKLAKKAGLTVHKKNGTFELK [K2M], 0.746 kcal/mol.
TWIIVNGKTFTAPTEEEAQKIAEKLAKKAGLTVHKKNGTFELK [K2W]: the “folding stability dG” value was determined as 0.519 kcal/mol.
Under TAIIVNGKTFTAPTEEEAQKIAEKLAKKAGLTVHKKNGTFELK [K2A] stands 0.458 kcal/mol; under TGIIVNGKTFTAPTEEEAQKIAEKLAKKAGLTVHKKNGTFELK [K2G], -0.359 kcal/mol.
For the variant TRIIVNGKTFTAPTEEEAQKIAEKLAKKAGLTVHKKNGTFELK [K2R], the “folding stability dG” value was 0.793 kcal/mol.
For TYIIVNGKTFTAPTEEEAQKIAEKLAKKAGLTVHKKNGTFELK [K2Y] the value was 0.641 kcal/mol; for TEIIVNGKTFTAPTEEEAQKIAEKLAKKAGLTVHKKNGTFELK [K2E], 0.085 kcal/mol; for TVIIVNGKTFTAPTEEEAQKIAEKLAKKAGLTVHKKNGTFELK [K2V], 0.501 kcal/mol.
Under TIIIVNGKTFTAPTEEEAQKIAEKLAKKAGLTVHKKNGTFELK [K2I] stands 0.742 kcal/mol; under TLIIVNGKTFTAPTEEEAQKIAEKLAKKAGLTVHKKNGTFELK [K2L], 0.93 kcal/mol.
For TSIIVNGKTFTAPTEEEAQKIAEKLAKKAGLTVHKKNGTFELK [K2S] the value was 0.364 kcal/mol; for TCIIVNGKTFTAPTEEEAQKIAEKLAKKAGLTVHKKNGTFELK [K2C], 1.16 kcal/mol.
For the variant TNIIVNGKTFTAPTEEEAQKIAEKLAKKAGLTVHKKNGTFELK [K2N], the “folding stability dG” value was found to be 0.108 kcal/mol.
Under TDIIVNGKTFTAPTEEEAQKIAEKLAKKAGLTVHKKNGTFELK [K2D] stands 0.156 kcal/mol.

The values are drawn from the MegaScale stability set (Tsuboyama et al. 2023).
